In US20160032001A1 (APEXIGEN, published 2016):
Like-named read-outs stand apart in the source and are kept apart here.

T1: RANKL expressed on the surface of 293 cells (UniProt O14788 1-317, limits assumed)
T1 construct: whole, on cells; also called RANKL-transfected 293 cells; cells expressing RANKL
T1 sequence (looked up): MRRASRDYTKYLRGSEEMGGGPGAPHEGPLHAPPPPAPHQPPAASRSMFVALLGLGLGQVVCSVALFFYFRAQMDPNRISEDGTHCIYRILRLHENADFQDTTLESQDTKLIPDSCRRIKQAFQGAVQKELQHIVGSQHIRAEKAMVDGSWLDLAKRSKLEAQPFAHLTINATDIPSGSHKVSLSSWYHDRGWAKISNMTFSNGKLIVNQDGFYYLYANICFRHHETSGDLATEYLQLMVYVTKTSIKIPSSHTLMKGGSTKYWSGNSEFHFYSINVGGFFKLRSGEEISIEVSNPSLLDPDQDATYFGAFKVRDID

T2: human RANKL protein (human, UniProt O14788 140-317, limits assumed)
T2 sequence (looked up): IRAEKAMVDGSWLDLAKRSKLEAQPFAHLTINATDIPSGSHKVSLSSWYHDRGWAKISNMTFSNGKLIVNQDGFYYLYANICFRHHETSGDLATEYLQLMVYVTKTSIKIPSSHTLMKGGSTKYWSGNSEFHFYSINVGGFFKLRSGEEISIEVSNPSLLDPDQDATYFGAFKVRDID


Experiments:
[1] = biological target: T1, RANKL expressed on the surface of 293 …; experiment: flow cytometry (MFI) on RANKL-transfected 293 cells
human RANKL protein [2] = biological target: T2, human RANKL protein; experiment: competition ELISA: RANKL (0.5 ug/ml) pre-incubated with the antibody, then binding to coated human RANK (8 ug/ml) detected; blocked partner RANK
[3] = biological target: T1, RANKL expressed on the surface of 293 …; experiment: flow cytometry (MFI) on RANKL-transfected 293 cells; remark: listed apart in the source
human RANKL protein [4] = biological target: T2, human RANKL protein; experiment: competition ELISA: RANKL (0.5 ug/ml) pre-incubated with the antibody, then binding to coated human RANK (8 ug/ml) detected; blocked partner RANK; remark: listed apart in the source
human RANKL protein [5] = biological target: T2, human RANKL protein; experiment: cell-based or functional assay
human RANKL protein [6] = biological target: T2, human RANKL protein; experiment: surface plasmon resonance
human RANKL protein [7] = biological target: T2, human RANKL protein; experiment: competition ELISA: RANKL (0.5 ug/ml) pre-incubated with the antibody, then binding to coated human RANK (8 ug/ml) detected; blocked partner RANK; remark: listed apart in the source
[8] = biological target: T1, RANKL expressed on the surface of 293 …; experiment: flow cytometry (MFI) on RANKL-transfected 293 cells; remark: listed apart in the source

| EC50 [1] [µg/mL] | EC50 [3] [µg/mL] | IC50 (human RANKL protein [4]) [µg/mL] | IC50 (human RANKL protein [7]) [µg/mL] | Binder | further results |
| --- | --- | --- | --- | --- | --- |
|  | 0.21 | 0.078 |  | clone 130 rabbit anti-RANKL antibody (antibody, V domains shown) VH: QSVEESGGRLVTPGTPLTLTCTVSGFSLSSGVVSWVRQAPGKGLEWIGYAWSGGATYYASWAKGRFTISKSSTTVDLKITSPTTADTATYFCARGYNGMDPWGPGTLVTVSS VL: DMTQTPASVEVAVGGTVTIKCQASQNIGSNLAWYQQKPGQPPKLLIYKASTLASGVPSRFRGSGSGTEFTLAISDLECADAATYYCQQGYTTKDLVNPFGGGTEVVVK |  |
|  | 0.0721 | 0.0706 |  | clone 147 rabbit anti-RANKL antibody (antibody, V domains shown) VH: QSVEESGGRLVTPGTPQTLTCTVSGFSLSTDVVSWVRQAPGKGLEWIGYTWNGGATYYASWAKGRFTFSKTSTTVDLKITSPTTEDTATYFCARGYNGMDPWGPGTLVTVSS VL: DMTQTPASVEVAVGGTVTIKCQASQNIGSNLAWYQQKPGQPPKLLISKASTLASGVPSRFKGSGSGTEFTLAISDLECADAATYYCQQGYTTKNVVNPFGGGTEVVVK |  |
| 0.135 |  |  | 0.0508 | clone 256 rabbit anti-RANKL antibody (antibody, V domains shown) VH: QSLEESGGRLVTPGTPLTLTCTVSGFSLSKYEINWVRQAPGKGLEWIGYIDVGSGTWYASWAKGRFTISKTSTTVALRITSPTTEDTATYFCSRQYNPMDLWGPGTLVTVSS VL: DMTQTPASVEAAVGGTVTIKCQASQNIGSNLAWYQQKPGQRPKLLIYSASTLASGVPSRFKGSGSGTQFTLTISGVQCDDAATYYCQQGYSVGNVNNAFGGGTEVVVK |  |
| 0.0751 |  |  | 0.058 | clone 270 rabbit anti-RANKL antibody (antibody, V domains shown) VH: QSVEESGGRLVTPGTPLTLTCTVSGFSLSSDVMSWVRQAPGKGLDWIGYIWSGGRPYYANWAKGRFTISKSSSTTVDLKITSPTTEDTAAYFCARGFGSSGLNIWGPGTLVTVSL VL: DMTQTPASVEVAVGGTVTIKCQASQNIGYNLAWYQQKPGQPPKLLIYGASTLASGVPSRFKGSGSGTQFTLTISGVQCDDAATYYCQQGYSVSNIDNAFGGGTEVVVK |  |
|  | 0.248 | 0.0699 |  | clone 7 rabbit anti-RANKL antibody (antibody, V domains shown) VH: QEQLKESGGGLVTPGGTLTLTCTASGFSLTTNGMSWVRQAPGKGLEWIGYIYSGGSPYYANWAKGRFTISKTSSTTVDLKMTSLTTEDTATYFCARHLSGGGWYLDIWGPGTLVTVSL VL: DMTQTPASVEVAVGGTVTINCQASQNIGSNLAWYQQKPGQPPKLLIYGASTLASGVSSRFKGSGSGTQFTFTISDVECTDPATYYCQQAYSISNVDNPFGGGTEVVVK |  |
| 0.2 |  |  | 0.0596 | clone 238 rabbit anti-RANKL antibody (antibody, V domains shown) VH: QEQLKESGGGLVTPGGTLTLTCTASGFSLNTNAMSWVRQAPGKGLEWIGYIYSGGSPYYANWAKGRFTISRTSTTVHLKMTSLTTEDTATYFCASHTSGGGWYLDIWGPGTLVTVSL VL: DMIQTPASVEVAVGGTVTINCQASQNIGSNLAWYQQKPGQPPKLLIYGTSTLASGVSSRFKGSGFGTQFTFTISDVECTDAATYYCQQAYSTSKIDNAFGGGTEVVVK |  |
|  | 0.185 | 0.0766 |  | clone 68 rabbit anti-RANKL antibody (antibody, V domains shown) VH: QEQLKESGGGLVKPDESLTLTCTASGFSLSSNGMSWARQAPGKGLEWIGYIYAGSSPYYANWAKGRFTISKTSSTTVDLKVTSLTTEDTATYFCARHASGGGWYLAIWGPGTLVTVSL VL: DMIQTPASVEVAVGGTVTIGCQASQSIGSNLGWYQQKPGQPPKLLIYSASTLASGVSSRFKGSGSGTEFTLTISDVECDDAATYYCQQAYSVSNVDNAFGGGTEVVVK |  |

Second part, the binder before the results:

| Binder | EC50 [1] [µg/mL] | EC50 [3] [µg/mL] | IC50 (human RANKL protein [4]) [µg/mL] | IC50 (human RANKL protein [7]) [µg/mL] | further results |
| --- | --- | --- | --- | --- | --- |
| clone 299 rabbit anti-RANKL antibody (antibody, V domains shown) VH: QSLEESGGRLVTPGTPLTLTCTVSGIDLSSSLMTWVRQAPGKGLEWIGYIWSGGAPFYASWAKGRFTISKTSSTTVDLKMTSLTTEDTATYFCAARYTDSGFDALDPWGPGTLVTVSS VL: DMTQTPASVEAAVGGTVTIKCQASQSIGSYLSWYHQKPGQPPKLLIYRASTLASGVPSRFKGSGSGTQFTLTISDLECADAATYYCQQGYSANVDNAFGGGTEVVVK | 0.207 |  |  |  | IC50 (human RANKL protein [2]): 0.0907 µg/mL |
| clone 91 rabbit anti-RANKL antibody (antibody, V domains shown) VH: QSLEESGGRLVKPDETLTLTCTVSGSSLYNYEINWVRQAPGKGLEWIGYIDVGSGTWYASWAKGRFTISKTSTTVDLKITSPTTEDTATYFCTRKYNPMDLWGPGTLVTVSS VL: DMTQTPASVEVAVGGTVTIKCQASQNIGSNLAWYQQKPGQPPKLLIYSTSTVASGVPSRFKGSGFGTQFTLTISGVQCDDAATYYCQQGYSAGNVNNPFGGGTEVVVK |  | 0.0664 | 0.0645 |  | IC50 in a RAW cell assay (TRAP activity, OD 405 nM) (human RANKL protein [5]): 0.00488 µg/mL; Kd (human RANKL protein [6]): 589 pM; koff (human RANKL protein [6]): 0.000273 s⁻¹; kon (human RANKL protein [6]): 464000 M⁻¹ s⁻¹ |
| clone 37 rabbit anti-RANKL antibody (antibody, V domains shown) VH: QSVEESGGRLVTPGTPLTLTCTVSGFSLSNDVMSWVRQAPGKGLEWIGYIWSGGSPYYANWAKGRFTISKSSSTTVDLKITSPTTEDTAAYFCARGFGSSGLNIWGPGTLVTVSL VL: DMTQTPASVEVAVGGTVTIKCQASQSIGSNLAWYQQKPGQSPKLLIYSASILASGVPSRFKGSGSGTQFTLTISGVQCDDAATYYCQQGYSVGNIDNAFGGGTEVVVK |  | 0.137 | 0.0436 |  |  |
| clone 220 rabbit anti-RANKL antibody (antibody, V domains shown) VH: QSLEESGGRLVTPGTPLTLTCTVSGFSLSKYEINWVRQAPGKGLEWIGYIDVGSGTWYASWAKGRFTISKTSTTVALRITSPTTEDTATYFCSRQYNPMDLWGPGTLVTVSS VL: DMTQTPASVEAAVGGTVTIKCQASQNIGSNLAWYQQKPGQRPKLLIYSASTLASGVPSRFKGSGSGTQFTLTISGVQCDDAATYYCQQGYSVGNVNNAFGGGTEVVVK | 0.153 |  |  | 0.0648 |  |
| clone 227 rabbit anti-RANKL antibody (antibody, V domains shown) VH: QSLEESGGRLVKPDETLTLTCTVSGFSLYNYEINWVRQAPGKGLEWIGYIDVGSGTWYASWAKGRFTISKTSTTVDLKITSPTTEDTATYFCTRKYNPMDLWGPGTLVTVSS VL: DMTQTPASVEVAVGGTVTIKCQASQNIGSNLAWYQQKPGQPPKLLIYSTSTVASGVPSRFKGSGFGTQFTLTISGVQCDDAATYYCQQGYSAGNVNNPFGGGTEVVVK | 0.0858 |  |  | 0.0643 |  |
| clone 565 rabbit anti-RANKL antibody (antibody, V domains shown) VH: QEDLKESGGGLITPGGTLTLTCTGSGFSLSSDGMSWVRQAPGKGLEWIGYIYSGSSPYYANWAKGRFTISKTSSTTVDLKMTSLTTEDTATYFCARHLSGGGWYLDIWGPGTLVTVSL VL: DMIQTPASVSEPVGGTVTINCQASQNIGSNLAWYQQKPGQPSKLLIYKASTLASGVPSRFKGSGSGTDFTLTISDLECADAATYYCQQAYTISNVDNAFGGGTEVVVK |  |  |  |  | EC50 [8]: 0.0831 µg/mL |
| clone 318 rabbit anti-RANKL antibody (antibody, V domains shown) VH: QDQLKESGGGLVTPGGTLTLTCTASGFSLGSNGMSWVRQAPGKGLEWIGYIYSGSSPYYASWAKGRFTISKTSSTTVDLKMTSLTTEDTATYFCAGHAKGGGWYLDIWGPGTLVTVSL VL: DMTQTPASVSAAVGGTVTINCQASQSIGSNLGWYQQKPGQPPKLLIYGASTLASGVSSRFKGSGSGTHFAFTISDVECTDAATYYCQQAYSVGNVDNAFGGGTEVVVK | 0.164 |  |  |  | IC50 (human RANKL protein [2]): 0.0624 µg/mL |
| clone 246 rabbit anti-RANKL antibody (antibody, V domains shown) VH: QSVKESGGGLVTPGGTLTLTCTASGLSLSGNGMSWVRQAPGKGLEWIGYIYSGSSPYYASWAKGRFTISKTSSTTVDLKMTSLTTEDTATYFCARHTSGGGWYLDIWGPGTLVTVSL VL: DMIQTPASVEVAVGGTVTINCQASQSIGSNLAWYQQKPGQPPKLLIYSASTLASGVSSRFKGSGSGTDYTLTISDVECTDAATYYCQQAYSISNVENPFGGGTEVVVK | 1 |  |  | 0.486 |  |
